Test results as given in article PMC9605926, “Safety of [^177Lu]Lu-NeoB treatment: a preclinical study characterizing absorbed dose and acute, early, and late organ toxicity” (European Journal of Nuclear Medicine and Molecular Imaging, 2022).

System: healthy Balb/c mice
Assay: Toxicity study, histopathology (5-point grade); 3 i.v. injections at 7-day interval; control group 2 = 3× 1200 pmol [175Lu]Lu-NeoB; treatment groups 1/2/3 = 3× 40 MBq/400 pmol, 80 MBq/800 pmol, 120 MBq/1200 pmol [177Lu]Lu-NeoB
Assay type: in vivo, mouse
Protocol: Five different experimental groups (10 male and 10 female healthy animals per group; n = 100) were included in the radiotoxicity study and treated as follows: control group 1: 3 × vehicle (PBS + kolliphor HS 15 (1 mg/mL)); control group 2: 3 × 1200 pmol [^175Lu]Lu-NeoB; treatment group 1: 3 × 40 MBq/400 pmol [^177Lu]Lu-NeoB; treatment group 2: 3 × 80 MBq/800 pmol [^177Lu]Lu-NeoB; and treatment group 3: 3 × 120 MBq/1200 pmol [^177Lu]Lu-NeoB.
Animals received 3 injections with an interval of 7 days between each injection.
At 5, 19, and 43 weeks after the first injection, 3–4 male and 3–4 female animals of each group were sacrificed by isoflurane overdose after a blood sample was taken by retro-orbital puncture. Hereafter, the axillary lymph nodes, mesenteric lymph nodes, skin, mammary fat pad, sternum, pancreas, adrenal glands, kidneys, spleen, liver, gallbladder, stomach, duodenum, jejunum, ileum, caecum, colon, rectum, testes (M), epididymis (M), seminal vesicles (M), prostate gland (M), ovaries (F), oviducts (F), uterus-cervix (F), vagina (F), bladder, ureters, sciatic nerve, skeletal muscle, femur, lungs, trachea, esophagus, thymus, thyroid gland, aorta, heart, brain, pituitary gland, eyes, harderian glands, tongue, spinal column, and the tail were collected and analyzed macroscopically. All organs and tissues were formalin fixed (4% buffered formaldehyde) and shipped to the European Research Biology Centre (ERBC, Pomezia, Rome, Italy) where histological sampling, embedding, sectioning (5 µm thick), and hematoxylin–eosin staining were performed according to standard guidelines. All organs and tissues were analyzed microscopically by an experienced pathologist. A 5-point grading scale was used: 1: minimal change, 2: mild change, 3: moderate change, 4: marked change, 5: severe change.

[1] = female wk 5, treatment group 1, grade 1
[2] = female wk 5, treatment group 1, grade 2
[3] = female wk 5, treatment group 2, grade 1
[4] = female wk 5, treatment group 2, grade 2
[5] = female wk 5, treatment group 3, grade 1
[6] = female wk 5, treatment group 3, grade 2
[7] = female wk 19, treatment group 1, grade 1
[8] = female wk 19, treatment group 1, grade 2
[9] = female wk 19, treatment group 2, grade 1
[10] = female wk 19, treatment group 2, grade 2
[11] = female wk 19, treatment group 3, grade 1
[12] = female wk 19, treatment group 3, grade 2
[13] = female wk 43, treatment group 1, grade 1
[14] = female wk 43, treatment group 1, grade 4
[15] = female wk 43, treatment group 2, grade 1
[16] = female wk 43, treatment group 2, grade 2
[17] = female wk 43, treatment group 3, grade 2
[18] = female wk 43, treatment group 3, grade 3
[19] = female wk 43, treatment group 3, grade 4
[20] = male wk 5, treatment group 1, grade 1
[21] = male wk 5, treatment group 1, grade 2
[22] = male wk 5, treatment group 3, grade 1
[23] = male wk 5, treatment group 3, grade 2
[24] = male wk 19, treatment group 1, grade 1
[25] = male wk 19, treatment group 1, grade 2
[26] = male wk 19, treatment group 2, grade 1
[27] = male wk 19, treatment group 2, grade 2
[28] = male wk 19, treatment group 3, grade 1
[29] = male wk 19, treatment group 3, grade 2
[30] = male wk 43, treatment group 1, grade 1
[31] = male wk 43, treatment group 1, grade 2
[32] = male wk 43, treatment group 2, grade 1
[33] = male wk 43, treatment group 2, grade 2
[34] = male wk 43, treatment group 3, grade 1
[35] = male wk 43, treatment group 3, grade 2
[36] = male wk 43, treatment group 3, grade 3
[37] = week 19, male treatment group 2

CC(C)CC(CC(C)C)NC(=O)[C@H](Cc1cnc[nH]1)NC(=O)CNC(=O)[C@@H](NC(=O)[C@H](C)NC(=O)[C@H](Cc1c[nH]c2ccccc12)NC(=O)[C@H](CCC(N)=O)NC(=O)[C@@H](Cc1ccccc1)NC(=O)COCC(=O)Nc1ccc(CNC(=O)CN2CCN(CC(=O)O)CCN(CC(=O)O)CCN(CC(=O)O)CC2)cc1)C(C)C [[^177Lu]Lu-NeoB, metal not drawn]
Adrenal glands subcapsular cell hyperplasia, incidence [1]: 1/3
Urinary bladder inflammatory cell foci, incidence [1]: 1/3
Adrenal glands subcapsular cell hyperplasia, incidence [2]: 1/3
Spleen extramedullary haematopoiesis, incidence [2]: 2/3
Adrenal glands subcapsular cell hyperplasia, incidence [3]: 3/3
Liver inflammatory cell foci, incidence [3]: 1/3
Urinary bladder inflammatory cell foci, incidence [3]: 1/3
Urinary bladder urothelium vacuolation, incidence [3]: 2/3
Urinary bladder inflammatory cell foci, incidence [4]: 2/3
Urinary bladder urothelium vacuolation, incidence [4]: 1/3
Adrenal glands subcapsular cell hyperplasia, incidence [5]: 1/3
Liver inflammatory cell foci, incidence [5]: 1/3
Thyroid gland follicular cyst/s, incidence [5]: 1/3
Urinary bladder inflammatory cell foci, incidence [5]: 1/3
Urinary bladder urothelium vacuolation, incidence [5]: 1/3
Spleen extramedullary haematopoiesis, incidence [6]: 1/3
Urinary bladder inflammatory cell foci, incidence [6]: 2/3
Urinary bladder urothelium vacuolation, incidence [6]: 2/3
Brain artifacts, incidence (female wk 5, treatment group 3, grade 3): 1/3
Adrenal glands subcapsular cell hyperplasia, incidence [7]: 1/3
Liver inflammatory cell foci, incidence [7]: 1/3
Pancreas inflammatory cell foci, incidence [7]: 2/3
Urinary bladder inflammatory cell foci, incidence [7]: 2/3
Urinary bladder urothelium vacuolation, incidence [7]: 2/3
Adrenal glands subcapsular cell hyperplasia, incidence [8]: 2/3
Liver inflammatory cell foci, incidence [8]: 1/3
Urinary bladder inflammatory cell foci, incidence [8]: 1/3
Kidneys hydronephrosis, incidence (female wk 19, treatment group 1, grade 4): 1/3
Adrenal glands subcapsular cell hyperplasia, incidence [9]: 2/3
Liver inflammatory cell foci, incidence [9]: 2/3
Pancreas inflammatory cell foci, incidence [9]: 1/3
Urinary bladder inflammatory cell foci, incidence [9]: 2/3
Urinary bladder urothelium vacuolation, incidence [9]: 2/3
Adrenal glands subcapsular cell hyperplasia, incidence [10]: 1/3
Spleen extramedullary haematopoiesis, incidence [10]: 1/3
Urinary bladder urothelium vacuolation, incidence [10]: 1/3
Adrenal glands subcapsular cell hyperplasia, incidence [11]: 1/3
Pancreas inflammatory cell foci, incidence [11]: 1/3
Urinary bladder inflammatory cell foci, incidence [11]: 1/3
Urinary bladder urothelium vacuolation, incidence [11]: 1/3
Adrenal glands subcapsular cell hyperplasia, incidence [12]: 2/3
Kidneys nephropathy, incidence [12]: 1/3
Pancreas inflammatory cell foci, incidence [12]: 1/3
Ureter(s) dilatation, incidence [12]: 1/3
Urinary bladder inflammatory cell foci, incidence [12]: 1/3
Urinary bladder urothelium vacuolation, incidence [12]: 1/3
Urinary bladder inflammatory cell foci, incidence (female wk 19, treatment group 3, grade 3): 1/3
Kidneys hydronephrosis, incidence (female wk 19, treatment group 3, grade 4): 3/3
Urinary bladder inflammatory cell foci, incidence [13]: 1/3
Urinary bladder urothelium vacuolation, incidence [13]: 1/3
Adrenal glands subcapsular cell hyperplasia, incidence (female wk 43, treatment group 1, grade 2): 2/3
Adrenal glands subcapsular cell hyperplasia, incidence (female wk 43, treatment group 1, grade 3): 1/3
Ovaries atrophy, incidence [14]: 3/3
Uterus endometrial hyperplasia, incidence [14]: 3/3
Liver inflammatory cell foci, incidence [15]: 3/4
Urinary bladder inflammatory cell foci, incidence [15]: 1/4
Urinary bladder urothelium vacuolation, incidence [15]: 1/4
Adrenal glands subcapsular cell hyperplasia, incidence [16]: 3/4
Lungs alveolar epithelialization, incidence [16]: 1/4
Adrenal glands subcapsular cell hyperplasia, incidence (female wk 43, treatment group 2, grade 3): 1/4
Ovaries atrophy, incidence (female wk 43, treatment group 2, grade 4): 3/4
Kidneys hydronephrosis, incidence (female wk 43, treatment group 2, grade 5): 1/4
Adrenal glands subcapsular cell hyperplasia, incidence [17]: 4/4
Pancreas inflammatory cell foci, incidence [17]: 1/4
Urinary bladder mineralization, incidence [17]: 1/4
Lungs B-adenoma, incidence [18]: 1/4
Ureter(s) dilation, incidence [18]: 1/4
Kidneys hydronephrosis, incidence [19]: 1/4
Ovaries atrophy, incidence [19]: 4/4
Kidneys hydronephrosis, incidence (female wk 43, treatment group 3, grade 5): 1/4
Adrenal glands subcapsular cell hyperplasia, incidence [20]: 1/3
Pancreas acinar cell degeneration, incidence [20]: 1/3
Spleen extramedullary haematopoiesis, incidence [21]: 2/3
Testes germ cell depletion, incidence [21]: 1/3
Thyroid gland ectopic thymus, incidence (male wk 5, treatment group 1, grade 3): 1/3
Testes germ cell depletion, incidence (male wk 5, treatment group 2, grade 1): 1/3
Thyroid gland ectopic thymus, incidence (male wk 5, treatment group 2, grade 3): 1/3
Prostate gland inflammatory cell foci, incidence [22]: 2/3
Testes germ cell depletion, incidence [22]: 1/3
Urinary bladder inflammatory cell foci, incidence [22]: 3/3
Urinary bladder urothelium vacuolation, incidence [22]: 2/3
Heart inflammatory cell foci, incidence [23]: 1/3
Pancreas mineralization, incidence [23]: 1/3
Urinary bladder mineralization, incidence [23]: 1/3
Urinary bladder urothelium vacuolation, incidence [23]: 1/3
Adrenal glands subcapsular cell hyperplasia, incidence [24]: 1/3
Testes germ cell depletion, incidence [24]: 2/3
Adrenal glands subcapsular cell hyperplasia, incidence [25]: 1/3
Spleen extramedullary haematopoiesis, incidence [25]: 1/3
Thyroid gland ectopic thymus, incidence (male wk 19, treatment group 1, grade 3): 1/3
Adrenal glands subcapsular cell hyperplasia, incidence [26]: 1/3
Urinary bladder inflammatory cell foci, incidence [26]: 2/3
Urinary bladder urothelium vacuolation, incidence [26]: 3/3
Adrenal glands subcapsular cell hyperplasia, incidence [27]: 1/3
Pancreas inflammatory cell foci, incidence [27]: 2/3
Kidneys hydronephrosis, incidence (male wk 19, treatment group 2, grade 3): 1/3
Kidneys hydronephrosis, incidence (male wk 19, treatment group 2, grade 4): 2/3
Adrenal glands subcapsular cell hyperplasia, incidence [28]: 2/3
Urinary bladder urothelium vacuolation, incidence [28]: 1/3
Adrenal glands subcapsular cell hyperplasia, incidence [29]: 1/3
Spleen extramedullary haematopoiesis, incidence [29]: 1/3
Thyroid gland ectopic thymus, incidence (male wk 19, treatment group 3, grade 3): 1/3
Kidneys hydronephrosis, incidence (male wk 19, treatment group 3, grade 4): 2/3
Adrenal glands subcapsular cell hyperplasia, incidence [30]: 2/3
Kidneys inflammatory cell foci, incidence [30]: 1/3
Kidneys nephropathy, incidence [30]: 2/3
Pancreas acinar cell degeneration, incidence [30]: 1/3
Pancreas inflammatory cell foci, incidence [30]: 1/3
Skin inflammatory cell foci, incidence [30]: 1/3
Skin scab formulation, incidence [30]: 1/3
Urinary bladder inflammatory cell foci, incidence [30]: 1/3
Adrenal glands subcapsular cell hyperplasia, incidence [31]: 1/3
Pancreas inflammatory cell foci, incidence [31]: 2/3
Adrenal glands subcapsular cell hyperplasia, incidence [32]: 2/4
Kidneys nephropathy, incidence [32]: 1/4
Urinary bladder inflammatory cell foci, incidence [32]: 2/4
Urinary bladder urothelium vacuolation, incidence [32]: 1/4
Adrenal glands subcapsular cell hyperplasia, incidence [33]: 1/4
Kidneys nephropathy, incidence [33]: 1/4
Pancreas inflammatory cell foci, incidence [33]: 2/4
Urinary bladder inflammatory cell foci, incidence [33]: 1/4
Adrenal glands subcapsular cell hyperplasia, incidence (male wk 43, treatment group 2, grade 3): 1/4
Kidneys hydronephrosis, incidence (male wk 43, treatment group 2, grade 4): 2/4
Adrenal glands subcapsular cell hyperplasia, incidence [34]: 3/4
Kidneys nephropathy, incidence [34]: 1/4
Liver inflammatory cell foci, incidence [34]: 2/4
Pancreas inflammatory cell foci, incidence [34]: 2/4
Skin inflammatory cell foci, incidence [34]: 1/4
Testes germ cell depletion, incidence [34]: 1/4
Adrenal glands subcapsular cell hyperplasia, incidence [35]: 1/4
Kidneys cyst/s, incidence [35]: 1/4
Epididymides spermatic granuloma, incidence [36]: 1/4
Ureter(s) dilation, incidence [36]: 1/4
Kidneys hydronephrosis, incidence (male wk 43, treatment group 3, grade 4): 3/4
Cytoplasmic vacuolation of urothelial cells, incidence (week 5, female treatment group 2, minimal or mild): 3/3
Cytoplasmic vacuolation of urothelial cells, incidence (week 5, female treatment group 3, minimal or mild): 3/3
Cytoplasmic vacuolation of urothelial cells, incidence (week 5, male treatment group 3, minimal or mild): 3/3
Cytoplasmic vacuolation of urothelial cells, incidence (week 19, all female treatment groups): 7/9
Hydronephrosis, incidence (week 19, female treatment group 1): 1/3
Hydronephrosis, incidence (week 19, female treatment group 3): 3/3
Cytoplasmic vacuolation of urothelial cells, incidence [37]: 3/3
Hydronephrosis, incidence [37]: 3/3
Hydronephrosis, incidence (week 19, male treatment group 3): 2/3
Marked ovarian atrophy, incidence (week 43, all treated females): 10/11
Marked or severe hydronephrosis, incidence (week 43, female treatment group 2): 1/4
Marked or severe hydronephrosis, incidence (week 43, female treatment group 3): 2/4
Marked or severe hydronephrosis, incidence (week 43, male treatment group 2): 2/4
Marked or severe hydronephrosis, incidence (week 43, male treatment group 3): 3/4
